Data: the DeepSol protein solubility set

Assay: soluble on expression in E. coli; label from the status in PepcDB or PDB records
For “MSLTEKCVIKIGGSVLKDGSSLPRVMDIISHFRSPILVVSAFGGITDALYRFYEYDESRMDKLRDLLLMHLGILWKYNIEAHPEISIQDSSILDQDAYVSYGEKMSAFTLARFLTGNGIPAAPIYTDEAGLIVEEISKERTVDLEGSRAFFENIARVETSGKVPVVTGFFGIDRYGKTRILGRNSSDYSAVAVAAILGIREVILIKDVPGIYMNLEDRTSIVNRIDYETALRIVDRGSKVVHRAALRLAMKMGMNLLITSPENLESGTVIGDLFEGHHHHHH”, the “soluble on expression in E. coli” value was “soluble”.
For “MSLTEKFRPTLKDVARQAGVSIATASRALADNPAVAASTRERIQQLASDLGYRANAQARALRSSRSNTIGVIVPSLINHYFAAMVTEIQSTASKAGLATIITNSNEDATTMSGSLEFLTSHGVDGIICVPNEECANQLEDLQKQGMPVVLVDRELPGDSTIPTATSNPQPGIAAAVELLAHNNALPIGYLSGPMDTSTGRERLEDFKAACANSKIGEQLVFLGGYEQSVGFEGATKLLDQGAKTLFAGDSMMTIGVIEACHKAGLVIGKDVSVIGFDTHPLFALQPHPLTVIDQNVEQLAQRAVSILTELIAGTVPSVTKTTIPTALIHRESIINSTLRKEGHHHHHH”, the “soluble on expression in E. coli” value was “soluble”.
In the case of “MSLTGQLHPAVRVADLLQHINQMKTAEGYGFKQEYESFFEGWDATKKKDKVKGSRQEPMPAYDRHRVKLHPMLGDPNADYINANYIDGYHRSNHFIATQGPKPEMVYDFWRMVWQEHCSSIVMITKLVEVGRVKCSRYWPEDSDTYGDIKIMLVKTETLAEYVVRTFALERRGYSARHEVRQFHFTAWPEHGVPYHATGLLAFIRRVKASTPPDAGPIVIHCSAGTGRTGCYIVLDVMLDMAECEGVVDIYNCVKTLCSRRVNMIQTEEQYIFIHDAILEACLCGETTIPVSEFKATYKEMIRIDPQSNSSQLREEFQTLNSVTPPLDVEECSIALLPRNRDKNRSMDVLPPDRCLPFLISTDGDSNNYINAALTDSYTRSAAFIVTLHPLQSTTPDFWRLVYDYGCTSIVMLNQLNQSNSAWPCLQYWPEPGRQQYGLMEVEFMSGTADEDLVARVFRVQNISRLQEGHLLVRHFQFLRWSAYRDTPDSKKAFLHLLAEVDKWQAESGDGRTIVHCLNGGGRSGTFCACATVLEMIRCHNLVDVFFAAKTLRNYKPNMVETMDQYHFCYDVALEYLEGLESREGHHHHHH”, the “soluble on expression in E. coli” value is reported as “soluble”.
For “MSLTHSTMHPYISLLDNEIYTHQGKEVITNMYNIIEKNLTLNLIANNVQYHPNQKTISFTHPSITIFNNKNIAIWYITCNQAQLYHQKKTLNLHGQVFINQIVKKICTQSIITNQLLIDLNNQSIISNNKTIIHGHYFYSIGSCMNINLHTQTTTLFGKIYTQYEIQNMEGHHHHHH”, the “soluble on expression in E. coli” value was “not soluble”.
In the case of “MSLTITVNGVEISEDMIASQLDHYADTPSPRDTAIQQLILHTLLIQQAKSEGLDVADEQQAIQTLLDSKLQVPAIDEASCREFYDRYPERFSAGESAVASHILLPKGEGLEASLIKAKAEGILEEAQANPSRFAALAQEHSTCPSGKQGGSLGQFGRGQMVPEFEQAVFSTEAGQITPHLVETQFGYHIIQVEQRAEGGKIGFDEVKERLQHYLADLAVNQAMHEYLNMLVSAAQISGYQMTAEGHHHHHH”, the “soluble on expression in E. coli” value is reported as “soluble”.
With “MSLTNDERILSWNETPSKPRYTPPPGAIDAHCHVFGPMAQFPFSPKAKYLPRDAGPDMLFALRDHLGFARNVIVQASCHGTDNAATLDAIARAQGKARGIAVVDPAIDEAELAALHEGGMRGIRFNFLKRLVDDAPKDKFLEVAGRLPAGWHVVIYFEADILEELRPFMDAIPVPIVIDHMGRPDVRQGPDGADMKAFRRLLDSREDIWFKATCPDRLDPAGPPWDDFARSVAPLVADYADRVIWGTDWPHPNMQDAIPDDGLVVDMIPRIAPTPELQHKMLVTNPMRLYWSEEMEGHHHHHH” the “soluble on expression in E. coli” value was “soluble”.
For “MSLTNLLIRNVRPSADAALDILIEGDRIARIGPSLDAPAGCAIEDGAGALALPGLVEGHTHLDKTHWGMPWYRNQVGPRLVDRIENERHYRATSGHDAGAASLALARAFLAAGTTRIRTHVDIDTEAGLRHLHGVLATRETLRGEVDIQIVAFPQSGVLKRPGTDVLLSDALAAGADLLGGLDPCAIEGDPVEAVDVLFAIAERHGRGLDLHLHERGSMGAYSLDLILQRTATHGMQGKVTISHGFCLGDIGERERDALLARMAELGVGLVTTAPAAVPVPPVAACRAAGVTVIGGNDGVRDTWTPYGSPDMLERAMLIGMRNDFRRDDALEVALDCVTHGAARGCGFGDYGLQPGSRADVVLVDALTFAEAVVARPVRRLVVSSGKIVARNGALVEGHHHHHH”, the “soluble on expression in E. coli” value was “soluble”.
With “MSLTNSSNLIDGIEVYVLNNPKDVKPHWVSHFIVPTANELLIKIKTKNGNSGFGVATSYTDIKPIIKPFTNGLQDLVIGEDPFCPEKIYDKIFKLTDTRMSSEKGWSREALIRISAALDIACWDLIGKAANIPLYKLFGGYRNQIPVYVTCAYYRDGKDEIELRDELKKLIDIGHQSFKVKVGGLSIKEDAKRLETIRNEIGNQKDLMIDVNRAWDLKTAIEGVKEFKKFNPIWIEEPVRWEDDRRNLKLLSKQTDIPLSGGESEITIHGCRSMIEEEAIQILQFDCTMFGGFTNGKKLSALCEINHIDIAPHHDCYIHAPLVASSPSGRIVESFDDERDPIQSELFENQHKMSNGWIYLNENPGLGFDISEAALKKFGKLVYKKEGHHHHHH” the “soluble on expression in E. coli” value was “soluble”.
With “MSLTPLPYECQKCVLQFFEANRRFKLVERCDSLKAADKAAPLHIYKLYMNPRVIRINRHRYTLGLLRHLPKDHVYYSPYINNVNLDGGAAYDMDQYGLKDPRCNEVLSPGDLKVESKEKINNMEDMTMEMLQFAMRDFIRPQGRMQVQQREDPESSSEDDEDEAEDLPAEGSDDEDDDPQEAQIRRILGDAYLPRARYSSSESEASESEDEPDIDPAVTDQLEAYTNPYSWREENEPAPYRFGIRFQRMNLDFRRDRETFHGIIEYLDYNKKMYDAMKYITEKLFGKRAHPIVIKTLELGDAGGVYRLPENFKVKVSNMRFGTEFGLLWDGLNSIFHESTLPFKSLHMPLEHDHPVIHATQRLVIGTEKMFGENFAWIPFLLKLPQKNVYMLHSPLFHHDYVQLIDNWIETPKSIGTCFTFGVKQYHATQSTLNLLGDHPMVVSKRMEGVDCTEFPHCFNIPLTYESELNVYGKKRTENLDPLEFMPHVSWCLVFEVMPIGSALPLED” the “soluble on expression in E. coli” value was “not soluble”.
With “MSLTQMPNVHDAEPIPEAARAEIDRLLLSGDLFRYTAPQDAPVALLEREFAALLGTKYALAVSSCSAALFLSLKALDLPRDARVLIPGFTFAAVPSSVVHADCVPVLCEVGENYRIDMADFKARLDDVQAVIVSHMRGHTSDMDAILSLCAARDIPVVEDAAHSLGTLWHGEKIGTLGRVGCFSFQSYKMVNAGEGGILVTDDADLVARAVIMSGAYEHNWAKHVDGDDPALSEAFARWQNKLPLYNLRLSNLSAAVIRPQLPLLAERVRRGLENHDYVADKLNSSPVLSVPAPLVAETRAPDSIQFNLVGLSDDEVTRFAEAAAARGIKVQIFGKSADNARAFWNWQFLPGGAPELPRTRDMLMRACDVRLPVRLTRDELDLIANALLAAAAEVQGPLRVYGTEGHHHHHH” the “soluble on expression in E. coli” value was “soluble”.
With “MSLTSEIVNSAWKVIPMFESRSIPLTVDFYTKTLGFELGSVKPEDNESELYFCSLAIGKKADANFYFSKVTPETFKSSHAMIGLGTRQLDDYYVYLKGKIEVEFSEDIEDKPWGFRQFTIKDTDGNSLTFFKFLEGGNPGDEGHHHHHH” the “soluble on expression in E. coli” value was “soluble”.
With “MSLTSRVSGVISTDEIIVILSVFVRYDVEQPSKLDRVRADYNVHYWSQGFFGIDDQGEVYVSPRKDKAHQTQLSSIVKQLEARDLNLPVLVRFPQILHQRVHNICDAFNQAIEEYDYPNKYLLVYPIKVNQQKEVVDEILASQAELEHKQLGLEAGSKPELLAVLAMAQQASSVIVCNGYKDREYIRLALIGEKLGHKVFIVLEKLSELDLVLKEAKSLGVKPRLGLRIRLASQGAGKWQSSGGEKSKFGLAASQVLTVINRLKAENQLEALQLVHFHLGSQMANIRDVRNGVNEAVRFYCELRELGAHIDFFDVGGGLAVDYDGTRSQSSNSMNYGLHEYARNIVSTVSDVCNLYGQPRPVIISESGRSITAHHAVLITNVIGTEAYSPEEIPAPGADAPMLLKNMWRGFEEVQHGTDDRALIEIYNDTQSDLSEAHSQFATGVLNLEHRAWAEQLSLRIYHELRQKMSNKNRFHRPILDELQERLADKFFVNFSLFQSLPDAWGIDQVFPVLPLSGLEEMNDRRAVMLDITCDSDGAVEQYVEGQGIESTLPVPAWTSDKPYLMGFFLVGAYQEILGDMHNLFGDTHSAVVNINDNGESEIAFINEGDTVEDMMRYVHIDVDKIRTNYRQLVSQRVAKEEQETVLAELELGLSGYTYLEDFEGHHHHHH” the “soluble on expression in E. coli” value was “soluble”.
In the case of “MSLTTIKTSNLGFPRIDLNREWKKALEAYWKGSTDKDTFLKQIDELFLSAVKTQIDQQIDVVPVSDFTQYDHVLDTAVSFNWIPKRFRHLTDATDTYFAIARGIKDAVSSEMTKWFNTNYHYIVPEYDESIEFRLTRNKQLEDYRRIKQEYGVETKPVIVGPYTFVTLAKGYEPSEAKAIQKRLVPLYVQLLKELEEEGVKWVQIDEPALVTASSEDVRGAKELFESITSELSSLNVLLQTYFDSVDAYEELISYPVQGIGLDFVHDKGRNLEQLKTHGFPTDKVLAAGVIDGRNIWKADLEESLDAVLDVLSIAKVDELWIQPSSSLLDVPVAKHPDEHLEKDLLNGLSYAKEKLAELTALKEGLVSGKAAISEEIQQAKADIQALKQFATGANSEQKKELEQLTDKDFKRPIPFEERLALQNESLGLPLLPTTTIGSFPQSAEVRRARQKWRKAEWSDEQYQNFINAETKRWIDIQEELELDVLVHGEFERTDMVEYFGEKLAGFAFTKYAWVQSYGSRCVRPPVIYGDVEFIEPMTVKDTVYAQSLTSKHVKGMLTGPVTILNWSFPRNDISRKEIAFQIGLALRKEVKALEDAGIQIIQVDEPALREGLPLKTRDWDEYLTWAAEAFRLTTSSVKNETQIHTHMCYSNFEDIVDTINDLDADVITIEHSRSHGGFLDYLKNHPYLKGLGLGVYDIHSPRVPSTEEMYNIIVDALAVCPTDRFWVNPDCGLKTRQQEETVAALKNMVEAAKQARAQQTQLVEGGSHHHHHH”, the “soluble on expression in E. coli” value is reported as “soluble”.
For “MSLTTPLYPIILAGGSGTRLWPLSRQNFPKQFLKLNGELSLIQQTMKRAMGLPGNQTIIVSNDAHYFICQDQLQDFNAQTTYLLEPCARNTAPAIACAAHYLANTVGKDAVMLVLPSDHWIADDEIWLAAMLEGGQFASENNAIVTFGIKPDSPKTGYGYIEAGTTLSSDIKQVLSFREKPDAHTAAQFVSKGNYFWNSGMFICRAGVYLEELEQFETDIYQFSQQALTLAQHHHDFLRLDLDCFSQCKEESIDYAIMEKTDKAVVIPISIQWSDLGCWTAVADANKQDEQGNTLIGNVIAQDSHNCLINSEELLVTTVGIQDQIIVATSDAVLVADKRYSQQVKDLVHSLRKDHPHLTQDHQRVPRPWGYYEVLAEGTSFKVKRLMVKPGAKLSLQTHQHRAEHWVIVGGEAEVVNGNNTFRLSKNQSTYIPKNALHRLSNPHNEPLYVIEVQSGSYLGEDDIKRFDDIYLRKEVEEGHHHHHH”, the “soluble on expression in E. coli” value was “soluble”.
With “MSLTTPTMIAAVVEEANGPFVLRKLARPQPAPGQVLVQIEASGTNPLDAKIRAGEAPHAQQPLPAILGMDLAGTVVAVGPEVDSFRVGDAVFGLTGGVGGLQGTHAQFAAVDARLLASKPAALTMRQASVLPLVFITAWEGLVDRAQVQDGQTVLIQGGGGGVGHVAIQIALARGARVFATARGSDLEYVRDLGATPIDASREPEDYAAEHTAGQGFDLVYDTLGGPVLDASFSAVKRFGHVVSCLGWGTHKLAPLSFKQATYSGVFTLHTLLANEGLAHFGEMLREADALVQTGKLAPRLDPRTFSIAEIGSAYDAVLGRNDVPRQRGKIAITVEPQFNLHEQREGHHHHHH” the “soluble on expression in E. coli” value was “soluble”.
